Among the data in patent US20080032921A1 are IC50 values, retold here.

Assay in all cases: competition with 125I-labelled reference peptide, purified HLA
In assay [1] the target is purified HLA DRB1*0101 (human).
Assay [2] deals with purified HLA DRB1*0301 (human).
Assay [3] concerns the target purified HLA DRB1*1501 (human).
Assay [4] concerns the target purified HLA DRB1*1302 (human).
Assay [5] deals with purified HLA DRB1*0405 (human).
Assay [6] has as its target purified HLA DRB5*0101 (human).
Assay [7] addresses purified HLA DRB1*0404 (human).
The target in assay [8] is purified HLA DRB1*0401 (human).
Assay [9] deals with purified HLA DRB1*0701 (human).
For assay [10], the target named is purified HLA DRB4*0101 (human).
In assay [11] the target is purified HLA DRB1*1101 (human).

As a reminder, the IC50 is the midpoint of a concentration-inhibition curve. Take AKSMEYDAVATTHSW (modifications not checked) [Flu.PB1.655]: the IC50 in assay [1] is 202 nM; in assay [2] it was 909 nM; in assay [3], 1990 nM; in assay [4], 2180 nM; in [5], 626 nM; in [6], 3530 nM. Moreover, the IC50 in assay [7] is 646 nM; in assay [8] it was 53 nM; in assay [9] it was 292 nM; in [10], 6340 nM; in [11] it was 6620 nM.
